Our source for the IC50 values is US20110143428A1 (Genentech, published 2011).

The target of the assay is T1, hVEGF-C (human, UniProt P49767).
T1 construct: unlabelled; also called human VEGF-C
T1 sequence (VEGF-C, looked up): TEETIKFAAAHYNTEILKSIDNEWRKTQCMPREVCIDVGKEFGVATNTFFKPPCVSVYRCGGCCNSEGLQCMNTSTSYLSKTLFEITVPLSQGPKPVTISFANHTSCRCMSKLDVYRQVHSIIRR
Put plainly: phage competition ELISA: phage-displayed clone incubated with increasing soluble hVEGF-C, unbound phage captured on hVEGF-C coated plate, anti-M13-HRP, OD450.

B1: VC1.1 (antibody, V domains shown)
VH: EVQLVESGGGLVQPGGSLRLSCAASGFTFSDSDIHWVRQAPGKGLEWVAWISPYSGYTDYADSVKGRFTISADTSKNTAYLQMNSLRAEDTAVYYCARLFKVIFDYWGQGTLVTVSS
VL: DIQMTQSPSSLSASVGDRVTITCRASQDVSTAVAWYQQKPGKAPKLLIYSASFLYSGVPSRFSGSGSGTDFTLTISSLQPEDFATYYCQQSYTTPPTFGQGTKVEIK
notes: also called clone VC1.1
What is called IC50 is the midpoint of a concentration-inhibition curve. B1 registered an IC50 of 41.5 nM.
